According to PMC5880400, “FIN219/JAR1 and cryptochrome1 antagonize each other to modulate photomorphogenesis under blue light in Arabidopsis” (PLoS Genetics, 2018):

Target: T1, CBP-CRY1 (cryptochrome1 full-length, recombinant) (Arabidopsis thaliana, UniProt Q43125 1-681)
T1 construct: cryptochrome1 (CRY1), Arabidopsis thaliana, full-length; also called CRY1/pCal-n; CRY1 full-length; source: E. coli BL21 (DE3) codon plus, purified (electroelution), acetone-precipitated and resuspended in PBS
Assay: pull-down; 5 ug purified recombinant protein mixed in 500 ul interaction buffer (50 mM Tris-HCl pH 7.5, 10 mM MgCl2, 100 mM NaCl, 1 mM PMSF, 0.04% NP-40), 4°C 1 h; GST fusions held on GSH sepharose; blot probed with antibodies against the CBP-tag
Settings: both partners purified

T1 sequence (Q43125 whole entry): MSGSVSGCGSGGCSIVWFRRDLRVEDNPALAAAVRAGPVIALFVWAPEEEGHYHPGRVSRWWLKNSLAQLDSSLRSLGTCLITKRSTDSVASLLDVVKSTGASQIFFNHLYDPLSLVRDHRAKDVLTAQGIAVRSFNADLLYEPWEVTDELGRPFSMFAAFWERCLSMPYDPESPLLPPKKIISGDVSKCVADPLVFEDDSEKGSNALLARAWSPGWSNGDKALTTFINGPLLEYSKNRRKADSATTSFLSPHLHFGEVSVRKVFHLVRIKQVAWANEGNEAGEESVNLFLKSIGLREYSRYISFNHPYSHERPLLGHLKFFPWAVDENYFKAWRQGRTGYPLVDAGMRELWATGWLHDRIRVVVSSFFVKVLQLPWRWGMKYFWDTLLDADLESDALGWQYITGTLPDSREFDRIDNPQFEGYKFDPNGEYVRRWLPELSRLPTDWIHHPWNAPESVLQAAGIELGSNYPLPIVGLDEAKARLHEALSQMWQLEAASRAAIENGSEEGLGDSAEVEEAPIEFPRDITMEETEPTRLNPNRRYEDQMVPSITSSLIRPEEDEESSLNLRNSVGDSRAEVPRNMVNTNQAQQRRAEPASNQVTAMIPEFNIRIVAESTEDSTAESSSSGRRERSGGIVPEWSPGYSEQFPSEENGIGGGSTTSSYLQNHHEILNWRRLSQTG

B1: GST-FIN219 (FIN219/JAR1 full-length, recombinant) (natural protein, Arabidopsis thaliana, UniProt Q9SKE2 1-575, looked up)
chain: MLEKVETFDMNRVIDEFDEMTRNAHQVQKQTLKEILLKNQSAIYLQNCGLNGNATDPEEAFKSMVPLVTDVELEPYIKRMVDGDTSPILTGHPVPAISLSSGTSQGRPKFIPFTDELMENTLQLFRTAFAFRNRDFPIDDNGKALQFIFSSKQYISTGGVPVGTATTNVYRNPNFKAGMKSITSPSCSPDEVIFSPDVHQALYCHLLSGILFRDQVQYVFAVFAHGLVHAFRTFEQVWEEIVTDIKDGVLSNRITVPSVRTAMSKLLTPNPELAETIRTKCMSLSNWYGLIPALFPNAKYVYGIMTGSMEPYVPKLRHYAGDLPLVSHDYGSSEGWIAANVTPRLSPEEATFAVIPNLGYFEFLPVSETGEGEEKPVGLTQVKIGEEYEVVITNYAGLYRYRLGDVVKVIGFYNNTPQLKFICRRNLILSINIDKNTERDLQLSVESAAKRLSEEKIEVIDFSSYIDVSTDPGHYAIFWEISGETNEDVLQDCCNCLDRAFIDAGYVSSRKCKTIGALELRVVAKGTFRKIQEHFLGLGSSAGQFKMPRCVKPSNAKVLQILCENVVSSYFSTAF
notes: FIN219/JAR1, Arabidopsis thaliana, full-length; also called GST-FIN219 full-length; FIN219FL/pGEX-4T-1; source: E. coli BL21 (DE3) codon plus, purified (GSH sepharose), acetone-precipitated and resuspended in PBS
B1: binds.
